Our source for the protein production values is a protein production outcome set (Wang et al. 2014).

The nature of the series: label from the status in PepcDB records.
As for “MNPFKNFETRQVLEETCEVHGCQLWLTKVPIKGRLEELKQCPECTKAAINIFENKLNSQSKINSKLADTYAVFERDSLVSDKLRAKSLENYEIKDEIDQHAINYAKRMEQFYRQDRTGNAIITGPSGVGKSHLTYGLAKFMNEQFKAYESPKSVLFISLVSLFTKIKESFKVDNGYRQADMIELLTRVDYLFLDDLGKESRKGDSQNNEWTHQILYEILDNRSNTIINTNLSSKEIKALYADNYGNGALSSRILEGVTGNSFAYPKDMEDRRY”, the protein production entry is reported as “failed”.

Turning to “MFVAREHELQVLEKLFTSDSFEMVVLYGRRRVGKTALIDEFVKDKRVLYFTAIQQSAKMNLEDFSRAALSFFGMPDSTPSFGGWSDALSFVAERAAQTDERMVFVFDEFPYAAAAEPALPSMLQIAIDHGFLATKVTMILSGSNEGFMENDVLGRKSPLYGRRTAQIRLLPFDYADAAKFLTNTSPQELVQYYATFGGTPYYLARIQEADGFESNVLRLMFDNLGVLREEPMMLLRQELREPASYYSILQSIAGGNSSPKLIAEHAGVGSDSIGAYLKTLVDLRLIERKVPFGEDPSKSRKGMYVVSDPFFAYWFRFVGRNMSILDGNISEEVTSRLAFGPAFDTYVGQQFETICLQWLIRNNAMGNLPFVATQFGKWWGNDPIAHEQTDIDVIAADSLDKTILFGECKWRNSFNETEAIEKLHQRAGLVRGYQAGNAWLMLFTKNPVSESTRTRYMDDERMVFVSAEELYTALEHHHHHH”, the protein production entry is on record as “failed”.

“MTQVIIDGDACPVTNSIIELTKGTGIFVTVVRSFSHFSTVIQPEHVNIIYVDDGPDAVDYRIVKLVHSDDLVVTQDYGLASLLLNKAKIVMHHKGLEHHHHHH”: the protein production result is “failed”.

Consider “MDIKNGLFIIGVIPTILFAVLTFIFWWKIRKLKDLRTLRLGRLSFFALLFLWITINGIIGSGLVLTELHQNVLLLLLIAEAVVMFLIIPMIIGIIVPISIVVLTIKMWRRESKSIGNLLLAIVVLTFLVVDWIHLSMGRLPDSWIWLKILGMVYPILSIYLAWQFGIFFLSSWVYGRRVRKQRANYYVVLGAGLIQGEHVGKLLGNRILAAVKAVRDNETILVFSGGQGPDEKVSEARAMQRYAVEVLGFPIERTMLEDQSRTTYENLFFSSQLIREKFLFFTSDYHVFRAALFAAMLKLEAQGGKGGKTAMYYRVPAFIREFIAVLNYEKKKHMIRVGIIVAIFLSIAIVSQIGYFWNQR”, for which the protein production result was “failed”.

For “MIKAVKKRKEGNMLKDLNTNQGLKPWRVESVFYCIVIVLIFIGAFKIAEAVFKPLAISIVLGFLVYPVYTFLARFKVPKFLIVFIIFFLLFSFSYLIFSFVYYSVTVLMKQLPYYQNQLAFIMKDVLSRYKVDSSVINDVNFSGYIYPFLTRAYNEIIGFTSSLVVVFLLLYFLLSEIHVFEMKLDKAFKKPISTRFIGALDTINNQIGKYLGIKILVSCLTGILVFIGLTLFGQDFPLVWAVLSFVFNFIPSIGSILAVFFIVITSLIQFYPNLNIVLYVFIYNTSIQMLIGNILEPKMQGKRLDISPFLLLCFLFFWGWLWGIVGLLISYPFTVIVKVIVDNVSWLKSFSVFLGGSEILSNISHISSKDKEI”, the protein production entry is reported as “failed”.

On to “MLVGNYDATLVLTSLFVAILASYTALGMAGRVAASRGVAARVWLGGGAFAMGLGIWSMHFIGMLAFSLPIPLGYDVALTVASMALAVACSAFALWVVTRATLPWRRLAGAAALMGTGIAAMHYTGMAAMRMHPAIEYSPALFMLSVAVAIVASGAALWITHALRHNRPGAPAYRICAAIVMGLAIVGMHYTGMAAANFPQGSVCMAANSGISAGWLAVSTAAVTLAVLAVALVVAVLDTRLETRTSALNASLAQANEELVQMALHDTLTKLPNRALLDERLKQAIIRATAAGRGFSLLFIDLDGFKAINDAYGHGAGDLLLVEMAQRIKRAMRPQDCVARLGGDEFVVLADLPDPNDAAGLAERLIDTLTVPAEVQGHEVSVAASIGIALFPGDGADASTLLAHADAAMYHAKRLSQTHRVSFFEPSMNEDALEQLQLLQDLRLALPRNQLELHYQPKFVAPAGPVVGAEALLRWNHPTRGVIGPTVFIPIAERTGLIFSIGAWVLDEACRQMRQWRDMGHADWTVAVNLSSLQFSQPDLIDSIRATLARHDLPPRCLAIEITESTAMRDAEASLTVLRELAELGVSISIDDFGTGYSSLLYLKRLPATELKIDRGFVNQLEHDNEDAAIVSAIIALGQKLNLKIVAEGVETLAQQSFLTEMGCDSLQGFLLGRPLPAAEFLAHTLQPQLA”, for which the protein production entry is given as “failed”.

Regarding “MAEAIFALDVGTRKVAGLVLAQGKKGYHIQAAAVVEHQQRAMLDGQIHDIPQVALAIQDVKGQLEKKLHISLKEAAVAAAGRALKTWRASATSQLSPAQEIAPQAVLALEAAAVQEAEKLLLEASEQPLAYHCVGYSVVGYNLDGHPIGNLVGQRGQSMTAEVIATFLPRVVVDSLVTALERAGLAMHSLTLEPIAASAVAVPAAMRGLNLALVDIGAGTSDIAITGQGTISGYAMVPSAGDEITEALASALILDFNTAERVKRQLSTRENLTFTDVVGQRHTLAAAELMEIIKPAVTELARQVATQIILLNGKPPQAVLLIGGGSLTPGLAAALAGQLEISPERVAVRGREVLNGISGAKNLQGPQAITPIGIAITALKREGLGLARVIVNGRPVHFLAGQQMTVTQALLAAGIPARHLYGRPGRGLGVEVNGRLTFLRGQPGEPGKILVNEAPATLETVVKAGDHIIVTPGRDGADAWGTVGDLVPELAPKTITFNGRRITLEPEIIMNGNRVDYRTPVQDQARITYNPLDTVARVLEYLGEPLDGPVLLNGQQVRPEAPIKDGDNLVTGAGATGRNINITINGRPATLRVQAGEALFTDVFNYLDFPSSPPPGRKTLVMEVNGRPAEFTTPLAEGDAVTLRWDP”, the protein production result was “failed”.

For the sequence “MFIASFITGPFQTNCYLLAREQGSECVIVDLGMGAEEFLGDALRTHHLVPVAIAVTHGHIDHIGSARQVGDEYGIPVLCPRDDRHLLSDPMAGLSDFARPLIEQWYGSTTLREPEQVVDVEPFSHHQFANLDLEFLHAPGHTPGCSMIRTIDAEFGPIVMSGDVVFAGSIGRTDMPGGDPAQMSYSLSDVVWSLDDSTHVLPGHGGPTTMANERLTNPFLGRR”, the protein production result is “failed”.

For “MDDKTAGGKIVMNKEQLLLFMENRRKQEDHRLALAKEATRSEMVDRKASGKIIMNHDQQLMFNEDHRLAVKKASRSEMVDLEGMGSEASVIMSNVPQPTSFSEDHKLAIKNIISKIVKEIRDRDHPA”, the protein production result was “failed”.

As to “MIRAASDDPAGVDELVAAIAPGLAGLGLPVINRREVVLVTGPWLAGVSGVRAALAERLPQRRFVETAELGPGDAPVAVVFVVSAATALTESDCVLLDTAAEHTDAVVAVVSKIDVHRGWRDVLTSNRDRLAARASRYARVPWVGAAAAPELGEPYLDDLVAAIQKQLADPAVARRNMLRAWESRLLMVARRFDGDAQSAGRRARVDALRQQRRTVLRQGRQSKSEHTIALRAQIQHARVKLSYFARNRCSLLRVELQEHVAGLSRKDIARFAAYTRGRVQEVVAEVGEGAVAHLADVAQLLGVPVQPPVLENLPAVLPTVVAPPLTSRRLEIRLTTLLGAGFGLGIALTLSRLVAGLTPGLAASGMVAGVAIGLAVTAWVVNARALLHDRVVVDRWTGEVTASLRSVVEQLVATRVVAVETLLSTAISERDDAENARVADQVSIIDGELREHAVAAARAAALRDREMPAVRAALEAVRAELGEPGAPTTGLF”, the protein production entry was “failed”.

Take “MKIRSADASDLDSLLRLNYQIGVMHFENAPESFVKPSSEEKEFLLKALNDQSRLFLVAEISGDVVGFVTATVTQNEAIPFLVKTPICRVGTIVVDENARVSGIGTQLMARCNDWAKSQGAEQIRLEVMAFNKSAQSFYVKLGFEEQSKTMWKTVN”: the protein production result is given as “failed”.

“FTPDYIFTSKIDTSYVRQDIVPEINGWNIDRWIEEIACNDNQVVKLLWQVINDSMNGNYTRKKAIFFVGDGNNGKGTFQELLSNVIGYSNIASLKVNEFDERFKLSVLEGKTAVIGDDVPVGVYVDDSSNFKSVVTGDPVLVEFKNKPLYRATFKCTVIQSTNGMPKFKDKTGGTLRRLLIVPFNANFNGIKENFKIKEDYIKNQQVLEYVLYKAINLDFET”: the protein production result is listed as “failed”.

For “MLEDLIGKAYLESAEDRRRGDRSEEVEAIRKYIRSARRTVVPNWNAEKVDAINDVLRSFNLREAEHLQFNTNWADLTRMPAVTKALMALDISGADLVIARGRLGVPGSGSLLVIMDSRGRLLSAAMSPPHVIHSMEVREAVRSEMTHALERIGFKR”, the protein production entry is given as “not failed”.
